Usually stoichiometry N stands for the number of molecules, sites or subunits per partner or assembly.

Data set [1] deals with the molecule itself. Put plainly: SEC; gel filtration chromatography in phosphate buffer.
Data set [2] deals with the molecule itself. Put plainly: AUC; sedimentation velocity, Tris buffer; data not shown; told in one sentence together with SDS/PAGE and gel filtration. A general note: In gel filtration, larger molecules generally elute earlier.
Data set [3] concerns the molecule itself. The data set can be described thus: native gel or EMSA; native PAGE at 5, 7.5, 10, 12.5 and 15% acrylamide with HMW markers, Ferguson plot of molecular weight. A general note: Mobility shift assays separate free from complexed probe on a gel.
Data set [4] deals with the molecule itself. Put plainly: AUC; sedimentation velocity, phosphate buffer; data not shown; told in one sentence together with SDS/PAGE and gel filtration.
Data set [5] deals with the molecule itself. The data set can be described thus: SDS/PAGE (zymogram); 12% SDS/PAGE under standard conditions, gel copolymerised with CM-cellulose; residual oligomers resist SDS and boiling; bands identified as PfuTIM by in-gel digestion and MALDI-TOF MS.

B1: Pyrococcus furiosus triosephosphate isomerase (PfuTIM) (enzyme, UniProt P62002 1-228, looked up)
chain: MAKLKEPIIAINFKTYIEATGKRALEIAKAAEKVYKETGVTIVVAPQLVDLRMIAESVEIPVFAQHIDPIKPGSHTGHVLPEAVKEAGAVGTLLNHSENRMILADLEAAIRRAEEVGLMTMVCSNNPAVSAAVAALNPDYVAVEPPELIGTGIPVSKAKPEVITNTVELVKKVNPEVKVLCGAGISTGEDVKKAIELGTVGVLLASGVTKAKDPEKAIWDLVSGIIKE
notes: also called TPI; source: E. coli M15[pREP4], purified (Ni-NTA, gel filtration)
On to B1, for which the “stoichiometry N” value in data set [1] worked out at 6; in data set [2], 4; in data set [3], 8; in data set [4] it was 3; in data set [5], 2.

(Values after publication PMC5537068, “Endoglucanase activity at a second site in Pyrococcus furiosus triosephosphate isomerase—Promiscuity or compensation for a metabolic handicap?” (FEBS Open Bio, 2017).)
